Changes are numbered by the printed parent chain.
B1: Active recombinant human JNK3 (Millipore) (protein)
chain: MSLHFLYYCSEPTLDVKIAFCQGFDKQVDVSYIAKHYNMSKSKVDNQFYSVEVGDSTFTVLKRYQNLKPIGSGAQGIVCAAYDAVLDRNVAIKKLSRPFQNQTHAKRAYRELVLMKCVNHKNIISLLNVFTPQKTLEEFQDVYLVMELMDANLCQVIQMELDHERMSYLLYQMLCGIKHLHSAGIIHRDLKPSNIVVKSDCTLKILDFGLARTAGTSFMMTPYVVTRYYRAPEVILGMGYKENVDIWSVGCIMGEMVRHKILFPGRDYIDQWNKVIEQLGTPCPEFMKKLQPTVRNYVENRPKYAGLTFPKLFPDSLFPADSEHNKLKASQARDLLSKMLVIDPAKRISVDDALQHPYINVWYDPAEVEAPPPQIYDKQLDEREHTIEEWKELIYKEVMNSEEKTKNGVVKGQPSPSGAAVNSSESLPPSSSVNDISSMSTDQTLASDTDSSLEASAGPLGCCR
B2: Active recombinant human JNK1α1 (Millipore) (protein)
chain: MSRSKRDNNFYSVEIGDSTFTVLKRYQNLKPIGSGAQGIVCAAYDAILERNVAIKKLSRPFQNQTHAKRAYRELVLMKCVNHKNIIGLLNVFTPQKSLEEFQDVYIVMELMDANLCQVIQMELDHERMSYLLYQMLCGIKHLHSAGIIHRDLKPSNIVVKSDCTLKILDFGLARTAGTSFMMTPYVVTRYYRAPEVILGMGYKENVDLWSVGCIMGEMVCHKILFPGRDYIDQWNKVIEQLGTPCPEFMKKLQPTVRTYVENRPKYAGYSFEKLFPDVLFPADSEHNKLKASQARDLLSKMLVIDASKRISVDEALQHPYINVWYDPSEAEAPPPKIPDKQLDEREHTIEEWKELIYKEVMDLEERTKNGVIRGQPSPLAQVQQ
B3: FLAG-β-TrCP1, expressed in HEK293T cells (protein)
chain: MDPAEAVLQEKALKFMCSMPRSLWLGCSSLADSMPSLRCLYNPGTGALTAFQNSSEREDCNNGEPPRKIIPEKNSLRQTYNSCARLCLNQETVCLASTAMKTENCVAKTKLANGTSSMIVPKQRKLSASYEKEKELCVKYFEQWSESDQVEFVEHLISQMCHYQHGHINSYLKPMLQRDFITALPARGLDHIAENILSYLDAKSLCAAELVCKEWYRVTSDGMLWKKLIERMVRTDSLWRGLAERRGWGQYLFKNKPPDGNAPPNSFYRALYPKIIQDIETIESNWRCGRHSLQRIHCRSETSKGVYCLQYDDQKIVSGLRDNTIKIWDKNTLECKRILTGHTGSVLCLQYDERVIITGSSDSTVRVWDVNTGEMLNTLIHHCEAVLHLRFNNGMMVTCSKDRSIAVWDMASPTDITLRRVLVGHRAAVNVVDFDDKYIVSASGDRTIKVWNTSTCEFVRTLNGHKRGIACLQYRDRLVVSGSSDNTIRLWDIECGACLRVLEGHEELVRCIRFDNKRIVSGAYDGKIKVWDLVAALDPRAPAGTLCLRTLVEHSGRVFRLQFDEFQIVSSSHDDTILIWDFLNDPAAQAEPPRSPSRTYTYISR

Experiments:
[1] = target: T1, Affinity-purified GST-tagged wild type (WT) hXBP1s
T1 chain: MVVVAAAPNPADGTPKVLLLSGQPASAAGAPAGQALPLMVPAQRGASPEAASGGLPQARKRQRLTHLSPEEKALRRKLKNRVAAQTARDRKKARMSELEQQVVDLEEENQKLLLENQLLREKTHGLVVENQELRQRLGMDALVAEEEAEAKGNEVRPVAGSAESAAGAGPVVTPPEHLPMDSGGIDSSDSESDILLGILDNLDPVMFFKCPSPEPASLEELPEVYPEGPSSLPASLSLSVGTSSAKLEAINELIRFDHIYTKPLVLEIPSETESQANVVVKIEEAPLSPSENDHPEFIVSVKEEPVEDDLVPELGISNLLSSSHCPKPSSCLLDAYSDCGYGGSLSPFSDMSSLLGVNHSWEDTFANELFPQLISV

[2] = target: T2, Affinity-purified GST-tagged hXBP1s S288A mutant
T2 chain: T1 chain with S288A

[3] = target: T3, HA tagged hXBP1s (HA-hXBP1s), wild type, expressed in HEK293T cells
T3 chain: T1 chain

| Protein | in vitro kinase assay, phosphorylation in the presence of ^32P (autoradiography) [1] | in vitro kinase assay, phosphorylation in the presence of ^32P (autoradiography) [2] | ubiquitination assay (conjugation of MYC-Ub to HA-hXBP1s, anti-HA immunoprecipitation probed with anti-MYC) [3] |
| --- | --- | --- | --- |
| B1 | JNK1, JNK2 or JNK3 was sufficient to directly phosphorylate hXBP1s | mutation of Ser288 to A abolished JNKs-mediated phosphorylation of hXBP1s |  |
| B2 | JNK1, JNK2 or JNK3 was sufficient to directly phosphorylate hXBP1s | mutation of Ser288 to A abolished JNKs-mediated phosphorylation of hXBP1s |  |
| B3 |  |  | ectopically expressed β-TrCP greatly promoted the conjugation of ubiquitin to HA-hXBP1s |

From patent US11137400
